Reference: patent publication US20140256820A1, “THERAPEUTIC AGENT FOR BLOOD-BRAIN BARRIER DISRUPTION SYNDROME” (FUKUOKA UNIVERSITY, priority 2010, published 2014)

Tested on: rat brain endothelial cells: RBECs
Format: cell-based
Method: Thus, a “t-PA-induced BBB dysfunction model” was prepared by the loading of ischemia and t-PA onto an in vitro BBB model. […] The resulting sample was left for 48 hours under 95% N2/5% CO2 (ischemia) conditions. Then, the permeability test was conducted.

t-PA: tissue plasminogen activator, a thrombolytic drug for cerebral infarction; t-PA injection (Activacin; Kyowa Hakko Kirin Co., Ltd.)
permeability of albumin (Evans blue-albumin: EBA) on loading of t-PA under ischemic conditions: increased the permeability | permeability of fluorescein sodium on loading of t-PA under ischemic conditions: increased the permeability
